Our source for the stoichiometry N values is article PMC7538557.

The assay has as its target recombinant SSA (streptococcal superantigen SSA of S. pyogenes HKU16, without the predicted signal peptide) (S. pyogenes HKU16).

For “recombinant SSA (streptococcal superantigen SSA of S. pyogenes HKU16, without the predicted signal peptide) (natural protein)”, the stoichiometry N was 2.
